Measurements published in publication PMC4323994 (Immunology and cell biology, 2014).
Where no end group is shown, it is not given here.

Legend:
[1] = biological target: HLA-DR molecule, DRB1*1101 (human); test: ELISA
[2] = biological target: HLA-DR molecule, DRB1*0401 (human); test: ELISA

Binder | IC50 [1] [nM] | IC50 [2] [nM]
GKQLYNVEATSYALLALLQLKDFD (also: amino and carboxyl ends blocked) [C3d_(223–246)] | < 2000 | < 2000
QATFMVFQALAQYQKDAP (also: amino and carboxyl ends blocked) [C3d_(269–286)] | < 2000 | 
VPPVVRWLNEQRYYGGGY (also: amino and carboxyl ends blocked) [C3d_(248–265)] | < 2000 | 
